Source: PMC2756588

T1: Abp1, P15891
T1 sequence (P15891 535-592, looked up): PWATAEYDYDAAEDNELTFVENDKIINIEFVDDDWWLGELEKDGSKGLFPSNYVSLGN

T2: Bbc1, P47068
T2 sequence (P47068 1-78, looked up): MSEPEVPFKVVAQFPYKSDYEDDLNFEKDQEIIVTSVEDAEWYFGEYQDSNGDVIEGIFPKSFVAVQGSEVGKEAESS

T3: Boi1, P38041
T3 sequence (P38041 1-86, looked up): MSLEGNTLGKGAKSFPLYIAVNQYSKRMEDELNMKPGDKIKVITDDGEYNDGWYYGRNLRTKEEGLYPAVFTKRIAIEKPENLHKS

T4: Boi2, P39969
T4 sequence (P39969 32-116, looked up): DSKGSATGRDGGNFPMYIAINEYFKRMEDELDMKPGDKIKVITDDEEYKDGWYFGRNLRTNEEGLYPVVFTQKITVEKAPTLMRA

T5: Bud14, P27637
T5 sequence (P27637 247-328, looked up): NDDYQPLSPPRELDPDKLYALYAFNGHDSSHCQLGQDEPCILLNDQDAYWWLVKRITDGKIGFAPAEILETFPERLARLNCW

T6: Bzz1-1, P38822
T6 sequence (P38822 478-572, looked up): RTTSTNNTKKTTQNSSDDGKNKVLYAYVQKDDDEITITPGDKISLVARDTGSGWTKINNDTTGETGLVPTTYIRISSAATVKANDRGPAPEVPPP

T7: Bzz1-2, P38822
T7 sequence (P38822 568-633, looked up): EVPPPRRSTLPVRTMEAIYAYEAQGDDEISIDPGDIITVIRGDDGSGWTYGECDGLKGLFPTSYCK

T8: Cdc25, P04821
T8 sequence (P04821 50-136, looked up): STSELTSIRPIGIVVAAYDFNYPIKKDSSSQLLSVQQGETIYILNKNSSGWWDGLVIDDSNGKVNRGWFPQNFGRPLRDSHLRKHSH

T9: Cyk3, Q07533
T9 sequence (Q07533 1-83, looked up): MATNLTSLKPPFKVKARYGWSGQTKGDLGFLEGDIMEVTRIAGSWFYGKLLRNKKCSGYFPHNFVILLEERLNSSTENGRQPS

T10: Fus1, P11710
T10 sequence (P11710 432-512, looked up): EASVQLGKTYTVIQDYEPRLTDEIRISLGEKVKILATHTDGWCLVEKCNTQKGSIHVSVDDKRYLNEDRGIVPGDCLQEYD

T11: Hof1, Q05080
T11 sequence (Q05080 590-669, looked up): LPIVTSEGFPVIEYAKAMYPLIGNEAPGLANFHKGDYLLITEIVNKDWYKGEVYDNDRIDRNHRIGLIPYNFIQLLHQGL

T12: Hse1, P38753
T12 sequence (P38753 208-285, looked up): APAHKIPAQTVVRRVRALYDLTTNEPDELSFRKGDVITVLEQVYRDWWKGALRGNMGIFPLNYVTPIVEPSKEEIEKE

T13: Lsb1, P53281
T13 sequence (P53281 45-122, looked up): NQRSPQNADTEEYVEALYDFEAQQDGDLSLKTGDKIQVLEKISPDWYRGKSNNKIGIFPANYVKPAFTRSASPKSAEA

T14: Lsb3, P43603
T14 sequence (P43603 385-451, looked up): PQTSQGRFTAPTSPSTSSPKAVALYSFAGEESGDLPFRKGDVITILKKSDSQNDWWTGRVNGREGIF

T15: Lsb4, P32793
T15 sequence (P32793 402-468, looked up): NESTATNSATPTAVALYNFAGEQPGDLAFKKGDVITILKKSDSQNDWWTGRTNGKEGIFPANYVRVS

T16: Myo5, Q04439
T16 sequence (Q04439 1072-1160, looked up): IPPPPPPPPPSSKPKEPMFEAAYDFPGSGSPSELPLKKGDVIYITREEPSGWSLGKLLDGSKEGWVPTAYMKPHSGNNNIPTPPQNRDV

T17: Nbp2, Q12163
T17 sequence (Q12163 103-180, looked up): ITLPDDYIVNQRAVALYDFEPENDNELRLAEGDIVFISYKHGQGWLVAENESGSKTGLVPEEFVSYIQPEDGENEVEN

T18: Pex13, P80667
T18 sequence (P80667 295-386, looked up): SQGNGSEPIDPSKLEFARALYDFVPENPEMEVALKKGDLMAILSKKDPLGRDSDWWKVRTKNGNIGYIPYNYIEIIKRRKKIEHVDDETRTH

T19: Pin3, Q06449
T19 sequence (Q06449 53-122, looked up): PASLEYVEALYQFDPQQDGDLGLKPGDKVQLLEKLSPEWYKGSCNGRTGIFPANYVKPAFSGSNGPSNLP

T20: Sla1-2, P32790
T20 sequence (P32790 60-140, looked up): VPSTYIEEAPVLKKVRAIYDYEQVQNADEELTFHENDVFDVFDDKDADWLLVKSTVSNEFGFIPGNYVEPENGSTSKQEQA

T21: Sla1-3, P32790
T21 sequence (P32790 344-424, looked up): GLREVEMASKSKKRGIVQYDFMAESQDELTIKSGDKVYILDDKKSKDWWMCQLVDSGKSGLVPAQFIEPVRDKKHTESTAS

B1: unnamed (peptide)
chain: PPIPIVPSSPAPPLP
B2: unnamed (peptide)
chain: MPAPPPPPPPPPGAF
B3: unnamed (peptide)
chain: QPPLPSSAPPIPTSH
B4: unnamed (peptide)
chain: HAPPLPPTAPPPPSL

Experiments:
Assay in all cases: SPOT array
Abp1, P15891 = target: T1, Abp1, P15891; settings: median of control spots 935
Bbc1, P47068 = target: T2, Bbc1, P47068; settings: median of control spots 796
Bem1-1, P29366 = settings: median of control spots 4282
Bem1-2, P29366 = settings: median of control spots 4347
Boi1, P38041 = target: T3, Boi1, P38041; settings: median of control spots 1162
Boi2, P39969 = target: T4, Boi2, P39969; settings: median of control spots 1161
Bud14, P27637 = target: T5, Bud14, P27637; settings: median of control spots 956
Bzz1-1, P38822 = target: T6, Bzz1-1, P38822; settings: median of control spots 4446
Bzz1-2, P38822 = target: T7, Bzz1-2, P38822; settings: median of control spots 4538
Cdc25, P04821 = target: T8, Cdc25, P04821; settings: median of control spots 969
Cyk3, Q07533 = target: T9, Cyk3, Q07533; settings: median of control spots 1451
Fus1, P11710 = target: T10, Fus1, P11710; settings: median of control spots 1200
GST = settings: median of control spots 978
Hof1, Q05080 = target: T11, Hof1, Q05080; settings: median of control spots 4086
Hse1, P38753 = target: T12, Hse1, P38753; settings: median of control spots 1727
Lsb1, P53281 = target: T13, Lsb1, P53281; settings: median of control spots 388
Lsb3, P43603 = target: T14, Lsb3, P43603; settings: median of control spots 406
Lsb4, P32793 = target: T15, Lsb4, P32793; settings: median of control spots 397
Myo3, P36006 = settings: median of control spots 468
Myo5, Q04439 = target: T16, Myo5, Q04439; settings: median of control spots 471
Nbp2, Q12163 = target: T17, Nbp2, Q12163; settings: median of control spots 357
Pex13, P80667 = target: T18, Pex13, P80667; settings: median of control spots 1341
Pin3, Q06449 = target: T19, Pin3, Q06449; settings: median of control spots 2171
Rvs167, P39743 = settings: median of control spots 2707
Sho1, P40073 = settings: median of control spots 1148
Sla1-2, P32790 = target: T20, Sla1-2, P32790; settings: median of control spots 712
Sla1-3, P32790 = target: T21, Sla1-3, P32790; settings: median of control spots 5475

Sho1, P40073, sequence (P40073 287-367): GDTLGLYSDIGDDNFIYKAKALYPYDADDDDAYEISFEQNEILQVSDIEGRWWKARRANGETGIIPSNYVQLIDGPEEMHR
Rvs167, P39743, sequence (P39743 419-482): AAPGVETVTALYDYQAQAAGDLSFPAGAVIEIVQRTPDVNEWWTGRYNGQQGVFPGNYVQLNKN
Bem1-1, P29366, sequence (P29366 55-141): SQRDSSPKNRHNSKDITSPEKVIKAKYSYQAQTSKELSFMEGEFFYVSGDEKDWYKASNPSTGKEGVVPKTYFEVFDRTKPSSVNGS
Bem1-2, P29366, sequence (P29366 139-227): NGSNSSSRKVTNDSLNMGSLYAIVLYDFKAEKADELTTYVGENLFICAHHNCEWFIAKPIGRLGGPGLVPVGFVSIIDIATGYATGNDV

Binder | SPOT intensity (Abp1, P15891) | SPOT intensity (Bbc1, P47068) | SPOT intensity (Bem1-1, P29366) | SPOT intensity (Bem1-2, P29366) | SPOT intensity (Boi1, P38041) | SPOT intensity (Boi2, P39969) | SPOT intensity (Bud14, P27637) | SPOT intensity (Bzz1-1, P38822) | SPOT intensity (Bzz1-2, P38822) | SPOT intensity (Cdc25, P04821) | SPOT intensity (Cyk3, Q07533) | SPOT intensity (Fus1, P11710) | SPOT intensity (GST) | SPOT intensity (Hof1, Q05080) | SPOT intensity (Hse1, P38753) | SPOT intensity (Lsb1, P53281) | SPOT intensity (Lsb3, P43603) | SPOT intensity (Lsb4, P32793) | SPOT intensity (Myo3, P36006) | SPOT intensity (Myo5, Q04439) | further results
B1 | 0 | 0 | 0 | 0 | 0 | 0 | 0 | 0 | 0 | 0 | 0 | 0 | 0 | 0 | 0 | 0 | 0 | 0 | 425 | 318 | SPOT intensity (Nbp2, Q12163): 0; SPOT intensity (Pex13, P80667): 0; SPOT intensity (Pin3, Q06449): 0; SPOT intensity (Rvs167, P39743): 0; SPOT intensity (Sho1, P40073): 0; SPOT intensity (Sla1-2, P32790): 0; SPOT intensity (Sla1-3, P32790): 0
B2 | 0 | 0 | 0 | 0 | 0 | 0 | 0 | 0 | 1 | 0 | 0 | 0 | 0 | 0 | 0 | 0 | 0 | 0 | 163 | 49 | SPOT intensity (Nbp2, Q12163): 0; SPOT intensity (Pex13, P80667): 0; SPOT intensity (Pin3, Q06449): 1; SPOT intensity (Rvs167, P39743): 0; SPOT intensity (Sho1, P40073): 0; SPOT intensity (Sla1-2, P32790): 0; SPOT intensity (Sla1-3, P32790): 2
B3 | 0 | 0 | 0 | 1 | 0 | 0 | 0 | 0 | 0 | 0 | 0 | 0 | 0 | 0 | 0 | 0 | 0 | 0 | 334 | 242 | SPOT intensity (Nbp2, Q12163): 0; SPOT intensity (Pex13, P80667): 0; SPOT intensity (Pin3, Q06449): 0; SPOT intensity (Rvs167, P39743): 0; SPOT intensity (Sho1, P40073): 0; SPOT intensity (Sla1-2, P32790): 0; SPOT intensity (Sla1-3, P32790): 0
B4 | 0 | 0 | 0 | 0 | 0 | 0 | 0 | 0 | 0 | 0 | 0 | 0 | 0 | 11 | 0 | 0 | 0 | 0 | 465 | 279 | SPOT intensity (Nbp2, Q12163): 0; SPOT intensity (Pex13, P80667): 0; SPOT intensity (Pin3, Q06449): 0; SPOT intensity (Rvs167, P39743): 0; SPOT intensity (Sho1, P40073): 0; SPOT intensity (Sla1-2, P32790): 0; SPOT intensity (Sla1-3, P32790): 0
